According to article PMC6744468, “Selective autophagy maintains centrosome integrity and accurate mitosis by turnover of centriolar satellites” (Nature Communications, 2019):

B1: Human PCM1 LIR-contained peptide (residues 1958-1976) (peptide)
peptide: SDEEDFVKVEDLPLKLTIY
notes: pericentriolar material 1 (PCM1), human, residues 1958-1976; core LIR FVKV; also called PCM1 LIR peptide; PCM LIR peptide; source: synthetic peptide, bought: GenScript Inc
B2: Human PCM1 LIR-contained peptide (peptide)
peptide: SDEEDFVKVEDLPLKLTIY
notes: PCM1, human, residues 1958-1976 with the core LIR FVKV; also called PCM1 LIR peptide; PCM LIR peptide; source: synthetic peptide, bought: GenScript Inc

What was measured:
Conditions in all cases: both partners purified
[1] = biological target: LC3B wild type (ITC sample) (human, UniProt Q9GZQ8 1-120); assay: ITC; PCM1 LIR peptide 0.4 mM titrated into 0.025 mM LC3 or GABARAP protein in 21 steps; 25 °C; 50 mM Tris-HCl pH 7.4, 100 mM NaCl; one-site binding model
[2] = biological target: T1, GABARAP wild type (ITC sample) (human, UniProt O95166 1-117); assay: as above
T1 construct: GABARAP, human ATG8 protein; also called GABARAP-wt; GABARAP WT

[3] = biological target: T2, GABARAP Y25H mutant (ITC sample) (human, UniProt O95166 1-117, Y25H); assay: as above
T2 construct: GABARAP, human ATG8 protein, with Y25H

[4] = biological target: LC3B H27Y mutant (ITC sample) (human, UniProt Q9GZQ8 1-120, H27Y); assay: as above
[5] = biological target: T3, GABARAPL2 wild type (ITC sample) (human, UniProt P60520 1-117); assay: as above
T3 construct: GABARAPL2, human ATG8 protein; also called GABARAPL2 WT

LC3B (ITC sample) = LC3B (ITC sample) (human, UniProt Q9GZQ8 1-120); assay: ITC; 0.4 mM PCM1 LIR peptide titrated into 0.025 mM LC3 and GABARAP proteins in 21 steps, 25 °C, 50 mM Tris-HCl pH 7.4, 100 mM NaCl, one-site binding model
[6] = biological target: T4, GABARAP Y25H (ITC sample) (human, UniProt O95166 1-117, Y25 in GABARAP to H); assay: as above
T4 construct: GABARAP, human, with Y25H, purified protein for ITC; also called mutation of invariant Y25 in GABARAP to H

GABARAP (ITC sample) = biological target: T5, GABARAP (ITC sample) (human, UniProt O95166 1-117); assay: as above
T5 construct: GABARAP, human, purified protein for ITC

GABARAPL2 (ITC sample) = biological target: T6, GABARAPL2 (ITC sample) (human, UniProt P60520 1-117); assay: as above
T6 construct: GABARAPL2, human, purified protein for ITC

LC3B H27Y (ITC sample) = LC3B H27Y (ITC sample) (human, UniProt Q9GZQ8 1-120, H27 in LC3B to Y); assay: as above

T2 sequence (O95166 whole entry Y25H): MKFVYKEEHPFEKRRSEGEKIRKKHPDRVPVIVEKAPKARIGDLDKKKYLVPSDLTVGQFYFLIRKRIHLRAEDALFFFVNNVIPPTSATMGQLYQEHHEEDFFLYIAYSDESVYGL
T1 sequence (O95166 whole entry): as the sequence (O95166 whole entry Y25H) above, with H25Y counted along it
T3 sequence (P60520 whole entry): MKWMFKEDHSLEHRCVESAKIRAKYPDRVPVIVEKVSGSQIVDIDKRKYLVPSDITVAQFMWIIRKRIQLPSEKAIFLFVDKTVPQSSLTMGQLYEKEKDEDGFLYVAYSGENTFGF
T5 sequence (O95166 whole entry): as the sequence (O95166 whole entry Y25H) above, with H25Y counted along it
T6 sequence (P60520 whole entry): as the sequence (P60520 whole entry) above
T4 sequence (O95166 whole entry Y25H): as the sequence (O95166 whole entry Y25H) above

Binder | Ka [1] | stoichiometry N [1] | Ka [2] | stoichiometry N [2] | Ka [3] | Kd [3] | stoichiometry N [3] | Ka [4] | Kd [4] | stoichiometry N [4] | Ka [5] | stoichiometry N [5] | Kd (LC3B (ITC sample)) | binding result [6] | Kd (GABARAP (ITC sample)) | Kd (GABARAPL2 (ITC sample)) | binding result (LC3B H27Y (ITC sample))
B1 | 13200 M⁻¹ | 1 | 157000 M⁻¹ | 0.94 ± 0.04 | 17900 M⁻¹ | 56 µM | 1 | 40200 M⁻¹ | 25 µM | 1 | 311000 M⁻¹ | 0.98 ± 0.02 |  |  |  |  | 
B2 |  |  |  |  |  |  |  |  |  |  |  |  | 76 µM | binds | 6.4 µM | 3.2 µM | binds
